Here are results for one molecule from patent US20090123474A1, “COMBINATION OF ANGIOPOIETIN-2 ANTAGONIST AND OF VEGF-A, KDR AND/OR FLTL ANTAGONIST FOR TREATING CANCER” (ASTRAZENECA AB, priority 2005, published 2009).

As usually defined, the % inhibition is the drop in the measured response relative to a control, in per cent.

Assay type in all cases: in vivo
Assay [1] has as its system A431 human tumour xenografts. Description: A431 xenograft efficacy study (Study A). To be noted: 3.19.3 10 mg/kg 2×wk i.p., VTKI 3 mg/kg/day p.o. How it is done: (§1) The anti-tumor activity of monoclonal antibody 3.19.3 in combination with the VTKI 4-(4-fluoro-2-methylindol-5-yloxy)-6-methoxy-7-(3-piperidinopropoxy)quinazoline was evaluated in a xenograft model of human skin epidermoid carcinoma (Study A) and in a model of colorectal cancer (Study B) by using the A431 and Colo205 cell lines respectively.
(§2) A431 and Colo205 cells were cultured in flasks as routine until the cells reached sub-confluence. Immunodeficient 6-8 week old female mice (Ncr/nu/nu) were used. The cells were harvested and suspended in Matrigel. A cell suspension containing 1 to 5×10^6 cells was injected subcutaneously into the flank of the mice. The mice were randomized into different groups, each containing 10-15 mice. When the tumour volume reached 200 mm^3, the mice were randomized in each groups and the treatments were initiated. mAb 3.19.3 10 mg/kg in saline was injected intraperitoneally, twice per week for 2 weeks. 4-(4-fluoro-2-methylindol-5-yloxy)-6-methoxy-7-(3-piperidinopropoxy)quinazoline was treated peroral daily at doses ranging from 1.5 to 6 mg/kg in water containing 1% Tween80. The dimensions of each tumor were measured twice per week. The volume of the tumor was calculated as: Volume=Length×(Width)^2×0.5 (cm^3).

Assay [2] deals with human Colo205 colon tumour xenografts. Briefly: Colo205 xenograft efficacy study (Study B). The conditions noted are these: 3.19.3 10 mg/kg 2×wk i.p., VTKI 6 mg/kg/day p.o. How it is done: as §1, §2
Assay [3] has as its system human HT29 colon tumour xenografts. Description: HT29 xenograft efficacy study. To be noted: AZD2171 1.5 mg/kg/day p.o. d 0-27, 3.19.3 10 mg/kg i.p. day 0, 3, 7, 10, 14, 17, 21 and 24. How it is done:
The efficacy of mAb 3.19.3 in combination with AZD2171 was evaluated in human HT29 xenografts. Briefly, 5×10^6 HT29 tumour cells in 0.1 ml of serum free Roswell Park Memorial Institute (RPMI)-1640 medium were injected subcutaneously into the flanks of 60 athymic (nu/nu genotype) mice. When tumours reached a volume of 200 to 400 mm^3 (9-10 days), mice were randomized into groups (8 per group) and treatment started (day 0).
The control group (Group 1) received a daily oral (p.o.) administration of vehicle only for 28 consecutive days (day 0-27). Group 2 treatment consisted of a daily p.o. administration of AZD2171 alone at 1.5 mg/kg/administration for 28 consecutive days (day 0-27). AZD2171 was prepared as a suspension in 1% polysorbate 80 (i.e. a 1% (v/v) solution of polyoxyethylene (20) sorbitan mono-oleate in deionised water). […]
Tumour volumes (mm^3) were assessed at least twice weekly by bilateral Vernier caliper measurement and, taking length to be the longest diameter across the tumor and width the corresponding perpendicular, calculated using the formula (π/6)×(length×width)×√ (length×width). Growth inhibition from the start of treatment was assessed by comparison of the differences in tumor volume between control and treated groups. […] For all mice, the tumours were excised and weights recorded upon termination of the study.

The test system of assay [4] is human LoVo colon tumour xenografts. To be noted: 3.19.3 10 mg/kg 2×wk i.p., Zactima 50 mg/kg/day p.o. The method, then: The anti-tumor activity of monoclonal antibody 3.19.3 was evaluated in the LoVo xenograft model of colorectal cancer. Briefly, LoVo cells were cultured in flasks as routine until the cells reached sub-confluence. Immunodeficient 8 week old male NCr nude mice were used. Cell suspensions containing 3×10^6 cells were injected subcutaneously into the right flank of the mice, and after the tumour volume reached 200 mm^3, the mice were randomized in groups and the treatments were initiated. mAb 3.19.3 10 mg/kg in saline was injected intraperitoneally, twice per week for 2 weeks. Zactima™ was treated peroral daily at doses ranging from 25 to 50 mg/kg in water containing 1% Tween80. The dimensions of each tumor were measured twice per week. The volume of the tumor was calculated as: Volume=Length×(Width)^2×0.5 (cm^3).

B1: mAb 3.19.3: fully human anti-Angiopoietin-2 monoclonal antibody, variable regions SEQ ID NO: 5-8; also binds Angiopoietin-1 (antibody, V domains shown)
VH: QVQLVESGGGVVQPGRSLRLSCAASGFTFTNYGMHWGRQAPGKGLEWVAVISHDGNNKYYVDSVKGRFTISRDNSKNTLYLQMNSLRAEDTAVYYCAREGIDFWSGLNWFDPWGQGTLVTVSSA
VL: EIVLTQSPGTLSLSPGERATLSCRASQSITGSYLAWYQQKPGQAPRLLICGASSWATGIPDRFSGSGSGTDFTLTISRLEPEDFAVYYCQQYSSSPITFGQGTRLEIKR
For B1, the “% tumor growth inhibition” value in assay [1] is reported as 46%. For the same molecule, in assay [2], the “% inhibition” value worked out at 35%. In addition, the “Inhibition of Control Tumour Growth Day 28” value in assay [3] is given as 40%. In assay [4], this molecule displayed a tumour inhibition of 48%.
